Source: publication PMC3341524

Target: murine p35-HA alanine/serine-scan mutant A13 (mouse) (UniProt P43431)
Experiment: co-IP

- decrease in IL-35 dimer formation against wild type: 30%
B1: murine Ebi3, triple-FLAG tagged (natural protein)
chain: YTETALVALSQPRVQCHASRYPVAVDCSWTPLQAPNSTRSTSFIATYRLGVATQQQSQPCLQRSPQASRCTIPDVHLFSTVPYMLNVTAVHPGGASSSLLAFVAERIIKPDPPEGVRLRTAGQRLQVLWHPPASWPFPDIFSLKYRLRYRRRGASHFRQVGPIEATTFTLRNSKPHAKYCIQVSAQDLTDYGKPSDWSLPGQVESAPHKP
